How the values were obtained:
[1] = molecular target: human Kv1.3 (human) (UniProt P22001); test: cell-based or functional assay
[2] = molecular target: human Kv1.1 (human) (UniProt Q09470); test: cell-based or functional assay
Sequence of human Kv1.1 (human) (Q09470 whole entry): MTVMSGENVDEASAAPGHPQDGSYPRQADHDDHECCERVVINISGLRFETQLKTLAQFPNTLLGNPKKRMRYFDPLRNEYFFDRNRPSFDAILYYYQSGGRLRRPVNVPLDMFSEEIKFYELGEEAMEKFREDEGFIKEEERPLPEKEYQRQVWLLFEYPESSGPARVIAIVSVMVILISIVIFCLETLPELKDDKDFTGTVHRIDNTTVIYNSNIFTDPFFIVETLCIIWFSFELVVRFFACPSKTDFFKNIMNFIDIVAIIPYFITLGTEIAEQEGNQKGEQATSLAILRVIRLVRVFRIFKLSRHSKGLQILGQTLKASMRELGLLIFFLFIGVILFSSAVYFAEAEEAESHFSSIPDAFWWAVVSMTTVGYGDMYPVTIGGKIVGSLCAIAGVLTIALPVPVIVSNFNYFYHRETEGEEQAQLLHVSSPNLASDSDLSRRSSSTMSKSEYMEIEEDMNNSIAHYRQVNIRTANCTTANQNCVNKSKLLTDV

Sequence of human Kv1.3 (human) (P22001 whole entry): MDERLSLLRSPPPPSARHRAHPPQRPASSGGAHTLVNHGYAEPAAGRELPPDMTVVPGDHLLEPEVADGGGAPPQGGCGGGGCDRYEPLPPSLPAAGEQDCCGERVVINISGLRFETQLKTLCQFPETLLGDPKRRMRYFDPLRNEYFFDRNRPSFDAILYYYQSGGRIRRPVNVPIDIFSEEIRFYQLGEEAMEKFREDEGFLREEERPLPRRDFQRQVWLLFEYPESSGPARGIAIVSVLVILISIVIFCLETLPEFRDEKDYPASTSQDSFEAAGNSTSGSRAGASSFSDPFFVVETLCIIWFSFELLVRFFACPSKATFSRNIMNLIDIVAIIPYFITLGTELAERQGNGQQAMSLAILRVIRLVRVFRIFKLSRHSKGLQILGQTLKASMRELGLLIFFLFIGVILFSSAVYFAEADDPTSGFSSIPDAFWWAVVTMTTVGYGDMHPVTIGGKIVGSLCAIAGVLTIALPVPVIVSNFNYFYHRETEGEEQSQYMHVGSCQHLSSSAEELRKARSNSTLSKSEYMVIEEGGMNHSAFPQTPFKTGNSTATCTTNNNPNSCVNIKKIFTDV

Row | Substance | Kv1.1/Kv1.3 Selectivity Ratio by PX [1] | Kv1.3 (PX) IC50 [1] | Potency Relative to ShK (WB, IL2) [1] | WB (IFNg) IC50 [1] | WB (IL-2) IC50 [1] | Kv1.1 (PX) IC50 [2]
1 | 20 kDa-PEG-ShK (peptide) | 5.44 | 0.299 nM | 5.67 | 0.84 nM | 0.38 nM | 1.63 nM
2 | Monovalent Fc/Fc-L10-ShK[2-35] heterodimer (Fc fusion) |  |  | 32.1 |  |  | 

Reference: patent publication US20120195879A1
